{
  "source": "paper PMC4372114",
  "target": "Recombinant human vascular endothelial growth factor receptor (VEGFR) (human) (UniProt P35968)",
  "sequence (P35968 20-764)": "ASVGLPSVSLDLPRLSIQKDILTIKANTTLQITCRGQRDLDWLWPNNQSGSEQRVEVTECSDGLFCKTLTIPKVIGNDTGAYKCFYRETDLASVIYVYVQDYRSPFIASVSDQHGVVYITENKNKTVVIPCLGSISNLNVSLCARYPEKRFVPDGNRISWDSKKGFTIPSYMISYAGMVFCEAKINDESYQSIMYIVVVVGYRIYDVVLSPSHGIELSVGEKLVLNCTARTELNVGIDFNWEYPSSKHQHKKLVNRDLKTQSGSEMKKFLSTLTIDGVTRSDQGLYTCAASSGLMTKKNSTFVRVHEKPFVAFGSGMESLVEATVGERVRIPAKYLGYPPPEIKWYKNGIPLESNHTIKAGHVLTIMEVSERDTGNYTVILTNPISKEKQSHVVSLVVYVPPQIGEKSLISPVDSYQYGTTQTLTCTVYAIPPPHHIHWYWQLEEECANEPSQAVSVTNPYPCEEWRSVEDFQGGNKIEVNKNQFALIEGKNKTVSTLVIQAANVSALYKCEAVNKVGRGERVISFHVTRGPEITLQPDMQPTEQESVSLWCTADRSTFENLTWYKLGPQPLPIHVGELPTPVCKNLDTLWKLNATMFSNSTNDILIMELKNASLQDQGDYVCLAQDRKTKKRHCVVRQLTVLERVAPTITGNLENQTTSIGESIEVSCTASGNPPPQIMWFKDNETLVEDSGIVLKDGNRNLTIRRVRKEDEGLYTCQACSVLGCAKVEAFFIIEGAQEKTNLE",
  "test": "SPR",
  "note": "Where “and” joins values, the source holds several entries; their conditions need not be identical. Identical values can stand only once.",
  "data": [
    {"substance": "Recombinant human vascular endothelial growth factor (VEGF) (from UniProt P15692 1-395) (ligand)", "values": [
      {"measurement": "SPR baseline shift", "value": "60.2 mDeg and 69.3 mDeg and 57.4 mDeg"},
      {"measurement": "kon", "value": "83000 M⁻¹ s⁻¹ and 91000 M⁻¹ s⁻¹ and 82000 M⁻¹ s⁻¹"}
    ]},
    {"substance": "VEGF released from living SKOV-3 cells (from UniProt P15692 1-395) (ligand)", "values": [
      {"measurement": "SPR baseline shift", "value": "104 mDeg and 106 mDeg and 113 mDeg"}
    ]}
  ]
}
